Test results: paper PMC9943653

Tests used:
[1] = test system: Gal4 (1-147); test: ensemble FRET; settings: EMSA: 10 mM Tris-HCl pH 8, 130 mM NaCl, 10% glycerol, 0.0075% Tween-20, 0.5 nM DNA or nucleosome, smFRET: same Tris/NaCl/glycerol with 0.5% Tween-20, 0.1 mg/ml …
[2] = test system: Gal4 (1-147); test: single-molecule FRET; settings: EMSA: 10 mM Tris-HCl pH 8, 130 mM NaCl, 10% glycerol, 0.0075% Tween-20, 0.5 nM DNA or nucleosome, smFRET: same Tris/NaCl/glycerol with 0.5% Tween-20, 0.1 mg/ml …

**Q.** For P26 nucleosome D17, which K half ([1]; amino-C6-dT at nt 17 of strand 1) is on record?
**A.** 9 nM

**Q.** With P26 nucleosome, 222 bp as the substance, how does the Kd ([2]; kon eff 0.11 nM-1 s-1, koff 0.66 s-1) read?
**A.** 6.1 nM

**Q.** For P26 nucleosome, full Gal4 site (D1), which K half [1] is on record?
**A.** 4.3 nM

**Q.** For “P28 nucleosome, full Gal4 site (called P29 once in text)”, which K half ([1]; text prints P29) is on record?
**A.** 1.7 nM

**Q.** How did the Kd ([2]; kon eff 0.0008 nM-1 s-1, koff 0.83 s-1) turn out when P31 nucleosome, 222 bp was run?
**A.** 980 nM

**Q.** Which K half [1] does the source give for P31 nucleosome, full Gal4 site here?
**A.** 500 nM

**Q.** Which K half [1] does the source give for P33 nucleosome, full Gal4 site here?
**A.** 240 nM

**Q.** With P36 nucleosome, 222 bp as the substance, how does the Kd ([2]; kon eff 0.004 nM-1 s-1, koff 1.03 s-1) read?
**A.** 260 nM

**Q.** Which K half [1] does the source give for P36 nucleosome, full Gal4 site here?
**A.** 290 nM
